The labels stand for the following.
T1: Gal4 DNA-binding domain-fused cBRC1-HCR-BRC2 A1108G (canine (Canis lupus familiaris), UniProt Q8MKI9 993-1248, A1108G)
T1 construct: canine BRCA2, residues 993-1248 with A1108G, a mutation reported in a canine mammary tumor; source: HeLa, transiently transfected, mammalian two-hybrid fusion
T1 sequence (looked up): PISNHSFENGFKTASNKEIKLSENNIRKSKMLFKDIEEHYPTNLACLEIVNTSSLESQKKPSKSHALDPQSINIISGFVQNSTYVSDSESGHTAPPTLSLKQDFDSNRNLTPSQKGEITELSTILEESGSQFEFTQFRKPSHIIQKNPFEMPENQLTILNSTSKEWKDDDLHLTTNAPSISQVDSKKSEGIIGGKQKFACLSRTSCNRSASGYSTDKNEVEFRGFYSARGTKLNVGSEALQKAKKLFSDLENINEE

T2: FLAG-HA-NLS-fused cBRC1-HCR-BRC2 A1108G (canine (Canis lupus familiaris), UniProt Q8MKI9 993-1248, A1108G)
T2 construct: canine BRCA2, residues 993-1248 with A1108G, a mutation reported in a canine mammary tumor; Very low expression; also called A1108G mutant; source: HeLa, stably expressing, in lysate
T2 sequence (looked up): T1 sequence (looked up)

B1: VP16-fused canine RAD51 (natural protein, UniProt Q8MKI8 1-339, looked up)
chain: MAMQMQLEANADTSVEEESFGPQPISRLEQCGINANDVKKLEEAGFHTVEAVAYAPKKELISIKGISEAKADKILTEAAKLVPMGFTTATEFHQRRSEIIQITTGSKELDKLLQGGIETGSITEMFGEFRTGKTQICHTLAVTCQLPIDRGGGEGKAMYIDTEGTFRPERLLAVAERYGLSGSDVLDNVAYARGFNTDHQTQLLYQASAMMVESRYALLIVDSATALYRTDYSGRGELSARQMHLARFLRMLLRLADEFGVAVVITNQVVAQVDGAAMFAADPKKPIGGNIIAHASTTRLYLRKGRGETRICKIYDSPCLPEAEAMFAINADGVGDAKD
notes: canine RAD51, cloned into the pVP16 vector; also called pVP16-RAD51; source: HeLa, transiently transfected, mammalian two-hybrid fusion
B2: endogenous RAD51 (HeLa cells) (natural protein, human (endogenous in HeLa), UniProt Q06609 1-339, looked up)
chain: B1 chain with S62N, T76A, G194A
notes: RAD51 recombinase, endogenous in HeLa cells; source: endogenous, HeLa lysate
B3: FLAG-HA-NLS-fused cBRC1-ΔHCR-BRC2 (canine BRCA2 993–1248 aa deleted with 1101–1133 aa) (domain or fragment, canine (Canis lupus familiaris), UniProt Q8MKI9 993-1248, looked up)
chain: PISNHSFENGFKTASNKEIKLSENNIRKSKMLFKDIEEHYPTNLACLEIVNTSSLESQKKPSKSHALDPQSINIISGFVQNSTYVSDSESGHTAPPTLSLKQDFDSNRHIIQKNPFEMPENQLTILNSTSKEWKDDDLHLTTNAPSISQVDSKKSEGIIGGKQKFACLSRTSCNRSASGYSTDKNEVEFRGFYSARGTKLNVGSEALQKAKKLFSDLENINEE
notes: canine BRCA2, residues 993-1248 with the HCR (1101-1133) deleted; also called HCR-deleted peptide; source: HeLa, stably expressing, in lysate

Where a chain is given by its changes, count along the chain named.

Common to all, as to details: partners not purified
Experiment [1] concerns the target T1, Gal4 DNA-binding domain-fused …. The experiment can be described thus: two-hybrid; mammalian two-hybrid in HeLa cells: pM (Gal4 DNA-binding domain)-BRCA2 peptide, pVP16-canine RAD51, pG5-Luc firefly luciferase reporter, normalised to Renilla (pRL-TK); read two days after transfection.
For experiment [2], the target named is T2, FLAG-HA-NLS-fused cBRC1-HCR-BRC2 A1108G. The experiment can be described thus: co-IP; lysates of HeLa cells stably expressing FLAG-HA-NLS-fused canine BRCA2 peptides, Benzonase-treated; FLAG M2 affinity agarose at 4 °C overnight; washed with 20 mM Tris-HCl pH 8.0, 150 mM KCl, 2 mM MgCl2, 10% glycerol; blots for endogenous RAD51 and PP2A-C subunit.
For experiment [3], the target named is B2. Briefly: co-IP; lysates of HeLa cells stably expressing FLAG-HA-NLS-fused canine BRCA2 peptides; 3 μg anti-RAD51 at 4 °C overnight, Protein G Dynabeads; peptides detected with anti-FLAG.

Take B1: in experiment [1], the “fold change against the wild-type peptide” value was 1.5 fold.

Consider B2, for which the “fold change against the wild-type peptide” value in experiment [2] turned out to be 48 fold.

Consider B3, for which the “fold change against cBRC1-HCR-BRC2” value in experiment [3] is approximately 1.5 fold.

The values above are taken from PMC9959916, “A Highly Conserved Region in BRCA2 Suppresses the RAD51-Interaction Activity of BRC Repeats” (Veterinary Sciences, 2023).
